Measured values: publication PMC10628517, “CXCL17 binds efficaciously to glycosaminoglycans with the potential to modulate chemokine signaling” (Frontiers in Immunology, 2023)

Target: the molecule itself
Assay: reducing SDS-PAGE and Western blot; serial dilutions of recombinant CXCL17 (24–119), 1.25–10 μM, resolved by reducing SDS-PAGE and probed with anti-CXCL17; bands of 14 kDa and 28 kDa read as monomer and dimer; the 28-kDa species seen at 5 μM and above

B1: recombinant human CXCL17 (24–119) (natural protein, UniProt Q6UXB2 24-119, looked up)
chain: LNPGVARGHRDRGQASRRWLQEGGQECECKDWFLRAPRRKFMTVSGLPKKQCPCDHFKGNVKKTRHQRHHRKPNKHSRACQQFLKQCQLRSFALPL
notes: human CXCL17, residues 24-119 (Leu24–Leu119), the commercially available form without the predicted signal peptide; UniProt Q6UXB2; The text calls the protein on the blots commercially available; also called Leu24–Leu119 form of CXCL17; source: bought: R&D Systems; produced in E. coli
ratio of monomer:dimer: ~3 monomer:dimer
